Data set [1] deals with HeLa Kyoto. Description: solubility change mitosis vs G1/S (difference of NP-40 vs SDS log2 ratios) (log2 ratio difference); higher = more soluble in mitosis.
For data set [2], the system named is HeLa Kyoto. Description: melting temperature (median over replicates), in situ; higher = more thermally stable.
The subject of data set [3] is HeLa Kyoto. In words: thermal stability score vs G1/S (z-score of summed log2 fold changes over temperatures); higher = more thermally stable than in G1/S.
The test system of data set [4] is HeLa Kyoto. Description: solubility in G1/S (NP-40 vs SDS abundance) (log2 ratio); higher = more soluble. The note with it: cell cycle stage: G1/S.
Where [5] appears, read: cell cycle stage: early G1 (4.5 h after nocodazole release).

From the supplement of paper PMC5998384 come the findings set out here.
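Throughout, for melting temperature (median over replicates), in situ: HeLa Kyoto cells synchronized by double thymidine or nocodazole block, proteins quantified by TMT10plex mass spectrometry, three independent biological replicates.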
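Throughout, for solubility change mitosis vs G1/S (difference of NP-40 vs SDS log2 ratios): synchronized HeLa Kyoto cells (double thymidine block for G1/S, nocodazole release for mitosis), protein amounts in NP-40 versus SDS lysates quantified by mass spectrometry, three biological replicates.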
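Throughout, for solubility in G1/S (NP-40 vs SDS abundance): HeLa Kyoto cells arrested at G1/S by double thymidine block, proteins quantified by TMT10plex mass spectrometry in mild NP-40 versus SDS extracts, three biological replicates.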
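Throughout, for thermal stability score vs G1/S (z-score of summed log2 fold changes over temperatures): synchronized HeLa Kyoto cells, proteins quantified by TMT10plex mass spectrometry, three biological replicates, mitosis taken 0.5 h after nocodazole release, G1/S directly after double thymidine block.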

On to “MATAVSRPCAGRSRDILWRVLGWRIVASIVWSVLFLPICTTVFIIFSRIDLFHPIQWLSDSFSDLYSSYVIFYFLLLSVVIIIISIFNVEFYAVVPSIPCSRLALIGKIIHPQQLMHSFIHAAMGMVMAWCAAVITQGQYSFLVVPCTGTNSFGSPAAQTCLNEYHLFFLLTGAFMGYSYSLLYFVNNMNYLPFPIIQQYKFLRFRRSLLLLVKHSCVESLFLVRNFCILYYFLGYIPKAWISTAMNLHIDEQVHRPLDTVSGLLNLSLLYHVWLCGVFLLTTWYVSWILFKIYATEAHVFPVQPPFAEGSDECLPKVLNSNPPPIIKYLALQDLMLLSQYSPSRRQEVFSLSQPGGHPHNWTAISRECLNLLNGMTQKLILYQEAAATNGRVSSSYPVEPKKLNSPEETAFQTPKSSQMPRPSVPPLVKTSLFSSKLSTPDVVSPFGTPFGSSVMNRMAGIFDVNTCYGSPQSPQLIRRGPRLWTSASDQQMTEFSNPSPSTSISAEGKTMRQPSVIYSWIQNKREQIKNFLSKRVLIMYFFSKHPEASIQAVFSDAQMHIWALEGLSHLVAASFTEDRFGVVQTTLPAILNTLLTLQEAVDKYFKLPHASSKPPRISGSLVDTSYKTLRFAFRASLKTAIYRITTTFGEHLNAVQASAEHQKRLQQFLEFKE [NDC1]”, for which the “solubility change mitosis (log2)” value in data set [1] is 0.182. The melting temperature is 52.7 °C in data set [2] (cell cycle stage: G1/S) and 51.3 °C in data set [2] (cell cycle stage: mitosis). Moreover, the results for the thermal stability score in data set [3] (setting [5]) and in data set [3] (cell cycle stage: mitosis) were -4.66 and -7.41, respectively. Further, the “solubility in G1/S (log2)” value in data set [4] is -0.187.
As for “MATCAEILRSEFPEIDGQVFDYVTGVLHSGSADFESVDDLVEAVGELLQEVSGDSKDDAGIRAVCQRMYNTLRLAEPQSQGNSQVLLDAPIQLSKITENYDCGTKLPGLLKREQSSTVNAKKLEKAEARLKAKQEKRSEKDTLKTSNPLVLEEASASQAGSRKESRLESSGKNKSYDVRIENFDVSFGDRVLLAGADVNLAWGRRYGLVGRNGLGKTTLLKMLATRSLRVPAHISLLHVEQEVAGDDTPALQSVLESDSVREDLLRRERELTAQIAAGRAEGSEAAELAEIYAKLEEIEADKAPARASVILAGLGFTPKMQQQPTREFSGGWRMRLALARALFARPDLLLLDEPTNMLDVRAILWLENYLQTWPSTILVVSHDRNFLNAIATDIIHLHSQRLDGYRGDFETFIKSKQERLLNQQREYEAQQQYRQHIQVFIDRFRYNANRASQVQSKLKMLEKLPELKPVDKESEVVMKFPDGFEKFSPPILQLDEVDFYYDPKHVIFSRLSVSADLESRICVVGENGAGKSTMLKLLLGDLAPVRGIRHAHRNLKIGYFSQHHVEQLDLNVSAVELLARKFPGRPEEEYRHQLGRYGISGELAMRPLASLSGGQKSRVAFAQMTMPCPNFYILDEPTNHLDMETIEALGRALNNFRGGVILVSHDERFIRLVCRELWVCEGGGVTRVEGGFDQYRALLQEQFRREGFL [ABCF3]”, the “solubility change mitosis (log2)” value in data set [1] is -0.0928. Besides, the melting temperature in data set [2] (cell cycle stage: G1/S) and in data set [2] (cell cycle stage: mitosis) was 47.9 °C throughout. Also, the thermal stability score in data set [3] (setting [5]) came to 1.82; in data set [3] (cell cycle stage: mitosis), 3.62. Besides, the “solubility in G1/S (log2)” value in data set [4] came to 0.0738.
On to “MATEGDVELELETETSGPERPPEKPRKHDSGAADLERVTDYAEEKEIQSSNLETAMSVIGDRRSREQKAKQEREKELAKVTIKKEDLELIMTEMEISRAAAERSLREHMGNVVEALIALTN [HYPK]”, for which, in data set [1], the “solubility change mitosis (log2)” value came to 0.208. The melting temperature was 54.4 °C in data set [2] (cell cycle stage: G1/S) and 54 °C in data set [2] (cell cycle stage: mitosis). Further, the thermal stability score in data set [3] (setting [5]) was -6.39; in data set [3] (cell cycle stage: mitosis) it was -8.21. In data set [4], the “solubility in G1/S (log2)” value is 0.395.
Consider “MATEGMILTNHDHQIRVGVLTVSDSCFRNLAEDRSGINLKDLVQDPSLLGGTISAYKIVPDEIEEIKETLIDWCDEKELNLILTTGGTGFAPRDVTPEATKEVIEREAPGMALAMLMGSLNVTPLGMLSRPVCGIRGKTLIINLPGSKKGSQECFQFILPALPHAIDLLRDAIVKVKEVHDELEDLPSPPPPLSPPPTTSPHKQTEDKGVQCEEEEEEKKDSGVASTEDSSSSHITAAAIAAKIPDSIISRGVQVLPRDTASLSTTPSESPRAQATSRLSTASCPTPKVQSRCSSKENILRASHSAVDITKVARRHRMSPFPLTSMDKAFITVLEMTPVLGTEIINYRDGMGRVLAQDVYAKDNLPPFPASVKDGYAVRAADGPGDRFIIGESQAGEQPTQTVMPGQVMRVTTGAPIPCGADAVVQVEDTELIRESDDGTEELEVRILVQARPGQDIRPIGHDIKRGECVLAKGTHMGPSEIGLLATVGVTEVEVNKFPVVAVMSTGNELLNPEDDLLPGKIRDSNRSTLLATIQEHGYPTINLGIVGDNPDDLLNALNEGISRADVIITSGGVSMGEKDYLKQVLDIDLHAQIHFGRVFMKPGLPTTFATLDIDGVRKIIFALPGNPVSAVVTCNLFVVPALRKMQGILDPRPTIIKARLSCDVKLDPRPEYHRCILTWHHQEPLPWAQSTGNQMSSRLMSMRSANGLLMLPPKTEQYVELHKGEVVDVMVIGRL [GPHN]”, for which the “solubility change mitosis (log2)” value in data set [1] is -0.057. Also, the figures for the melting temperature in data set [2] (cell cycle stage: G1/S) and in data set [2] (cell cycle stage: mitosis) were 55.6 °C and 54.6 °C, respectively. Further, the thermal stability score in data set [3] (setting [5]) is -0.16; in data set [3] (cell cycle stage: mitosis) it was -1.19. The “solubility in G1/S (log2)” value in data set [4] worked out at 0.226.
As for “MATESPATRRVQVAEHPRLLKLKEMFNSKFGSIPKFYVRAPGRVNIIGEHIDYCGYSVLPMAVEQDVLIAVEPVKTYALQLANTNPLYPDFSTSANNIQIDKTKPLWHNYFLCGLKGIQEHFGLSNLTGMNCLVDGNIPPSSGLSSSSALVCCAGLVTLTVLGRNLSKVELAEICAKSERYIGTEGGGMDQSISFLAEEGTAKLIEFSPLRATDVKLPSGAVFVIANSCVEMNKAATSHFNIRVMECRLAAKLLAKYKSLQWDKVLRLEEVQAKLGISLEEMLLVTEDALHPEPYNPEEICRCLGISLEELRTQILSPNTQDVLIFKLYQRAKHVYSEAARVLQFKKICEEAPENMVQLLGELMNQSHMSCRDMYECSCPELDQLVDICRKFGAQGSRLTGAGWGGCTVSMVPADKLPSFLANVHKAYYQRSDGSLAPEKQSLFATKPGGGALVLLEA [GALK2]”, in data set [1], the “solubility change mitosis (log2)” value is -0.141. Also, the melting temperature was found to be 54.5 °C in data set [2] (cell cycle stage: G1/S) and 54.2 °C in data set [2] (cell cycle stage: mitosis). The thermal stability score was found to be 0.289 in data set [3] (setting [5]) and 0.99 in data set [3] (cell cycle stage: mitosis). Moreover, the “solubility in G1/S (log2)” value in data set [4] was 0.145.
